This note sets out measurements from the supplement of paper PMC10567573.

The series is described as follows: protein stability index of a GFP-peptide fusion (GPS, HEK-293T) (PSI 1-6); higher = more stable.
The mark [1] stands for this setting: treatment: DMSO, c terminus: a fixed tail appended.
[2] abbreviates: treatment: MLN4924 1 uM, 8 h, c terminus: a fixed tail appended.

± gives the standard deviation.
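Note: 24-mer peptide tiles fused after GFP, lentivirally expressed, FACS-sorted into six equal bins by GFP/DsRed ratio, decoded by Illumina sequencing, PSI is the read-weighted mean bin number.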

Take VIQAVQKSEEGHPFKAYLDVDITL [RTN3]: the protein stability index is, setting by setting: under setting [1], 2.23 ± 0.59; under setting [2], 2.18 ± 0.39.
For VIRGLNTIPLFVQLLYSPIENIQR [CTNNB1], the protein stability index runs as follows: under setting [1], 2.76 ± 0.3; under setting [2], 2.68 ± 0.4.
On to VKALEDFEDLCDRVFSDEDSELDN [FAM9B], for which the protein stability index came to 5.34 ± 0.26 under setting [1] and 5.28 ± 0.27 under setting [2].
For VKCFNDLKAEELLLKIHEVSTVSH [CASP6], the protein stability index is, setting by setting: under setting [1], 2.23 ± 0.24; under setting [2], 2.44 ± 0.16.
On to VKEELSQKFDTLYAILDEKKSELL [TRIM63], for which the protein stability index amounted to 3.6 ± 0.41 under setting [1] and 3.58 ± 0.17 under setting [2].
Turning to VKFISNPPSMVAAGSVVAAVQGLN [CCND1], the protein stability index is 2.43 ± 0.62 under setting [1] and 2.42 ± 0.24 under setting [2].
In the same order, the values of VKMLGSPVDSVLFYAITTLHNLLL [CTNNB1] are 2.47 ± 0.59 and 2.48 ± 0.6.
VLDSLLLTLLPQLQEAWQQRTPSP [RSAD1] came in with a protein stability index under setting [1] of 2.85 ± 0.052 and a protein stability index under setting [2] of 3.27 ± 0.43.
The sequence VLEHSLDREEEAIHHLVLTASDGG [PCDHGA10] yielded a protein stability index under setting [1] of 4.66 ± 0.18 and a protein stability index under setting [2] of 4.84 ± 0.17.
Regarding VLERAACLRRCKRTLPAFQVPYPP [P3H4], the protein stability index amounted to 2.16 ± 0.29 under setting [1] and 2.16 ± 0.19 under setting [2].
For the sequence VLLEEPLPLETARESPSFKLEPME [ZNF263], the protein stability index by setting is: under setting [1], 4.02 ± 0.24; under setting [2], 4.284 ± 0.038.
With VLPPRQPSALVPSVTEYRLDGHTI [MYBL2], the protein stability index under setting [1] stood at 3.35 ± 0.35 and the protein stability index under setting [2] came to 3.41 ± 0.24.
Turning to VPGIFCAGADLKERAKMSSSEVGP [AUH], the protein stability index by setting is: under setting [1], 3.59 ± 0.34; under setting [2], 3.64 ± 0.29.
For the sequence VPHNGSSEATLPAQMSTLHVSPPP [PDLIM4], the protein stability index came to 4.87 ± 0.17 under setting [1] and 4.73 ± 0.19 under setting [2].
VQGPGVVGEFPIISPGRVYEYTSC [FBXO3]: the protein stability index by setting is: under setting [1], 2.72 ± 0.52; under setting [2], 3 ± 0.32.
For VQQQKLAEERRRQNLQEEKERKLE [FAF2], the protein stability index runs as follows: under setting [1], 4.87 ± 0.15; under setting [2], 5.19 ± 0.43.
Take VQRVMAQALGIPATECEFVGSLPV [LPCAT4]: the protein stability index is 2.78 ± 0.25 under setting [1] and 2.76 ± 0.3 under setting [2].
As for VRAHQDTQRRTSMGGTQQQFVEGV [CTNNB1], the protein stability index reads like this: under setting [1], 4.232 ± 0.018; under setting [2], 4.24 ± 0.14.
In the same order, the values of VRKKERGREEKCVWKHGITPPLKN [TAF7L] are 3.85 ± 0.41 and 3.83 ± 0.3.
In the same order, the values of VRLAARQEDAPMIEPLVPEEKMET [EPB41L3] are 4.9 ± 0.16 and 5.17 ± 0.24.
With VRLKPALQRLDFSVRGYMMSKQRE [RETREG3], the protein stability index came to 2.64 ± 0.48 under setting [1] and 2.7 ± 0.44 under setting [2].
Take VRLRTLLCKVLGVLFSVAGGLFVG [CLCN6]: the protein stability index runs as follows: under setting [1], 2.87 ± 0.14; under setting [2], 2.88 ± 0.17.
In the case of VRRQRSADEQLHCAGKAKRSGGHA [ESR2], the protein stability index runs as follows: under setting [1], 4.51 ± 0.32; under setting [2], 4.75 ± 0.13.
On to VRSQYPNQPTRFGKLLLRLPSLRT [NR2F2], for which the protein stability index under setting [1] came out at 2.42 ± 0.16 and the protein stability index under setting [2] is 2.49 ± 0.23.
In the same order, the values of VSKGAESSRSSEESSSDSGSSDSE [BRD3] are 5.61 ± 0.24 and 5.6 ± 0.41.
For VTHTLTMRQRISRVEESALRALRE [PPEF2], the protein stability index came to 3.5 ± 0.38 under setting [1] and 3.86 ± 0.012 under setting [2].
Take VTLALFFVLYFLLACWTYGISVPS [CLCN6]: the protein stability index runs as follows: under setting [1], 2.95 ± 0.27; under setting [2], 2.98 ± 0.19.
On to VTLKTAVDGPDLEMLTGQERVALA [FKBP8], for which the protein stability index was found to be 3.7 ± 0.23 under setting [1] and 3.81 ± 0.24 under setting [2].
Regarding VVEEILELHIHRLRYLSSIWNILD [PKD2L1], the protein stability index is, setting by setting: under setting [1], 3.29 ± 0.65; under setting [2], 3.04 ± 0.3.
Consider VVMNLDSRLLIFPLYICCNFLYIS [GMCL1], for which the protein stability index is, setting by setting: under setting [1], 2.59 ± 0.59; under setting [2], 2.94 ± 0.36.
For VWMDDFKSHVYMAWNIPMSNPGVD [GALNT9], the protein stability index reads like this: under setting [1], 2.21 ± 0.3; under setting [2], 2 ± 0.2.
In the same order, the values of VYIFATCLGLSYDGLLGDNQIMPK [MAGEA6] are 2.82 ± 0.52 and 2.44 ± 0.44.
In the same order, the values of VYSNTIQSIIAIIRAMGRLKIDFG [GNAI1] are 2.7 ± 0.53 and 2.13 ± 0.29.
In the case of VYVSNMTDKLVTPGKYFSAAEYHA [IQUB], the protein stability index is, setting by setting: under setting [1], 2.14 ± 0.47; under setting [2], 1.96 ± 0.15.
For the sequence WCSVAYWEHRTRVGRLYAVYDQAV [SMAD6], the protein stability index came to 2.44 ± 0.43 under setting [1] and 2.18 ± 0.16 under setting [2].
In the same order, the values of WHDTCFVCAICQINLEGKTFYSKK [PDLIM7] are 2.24 ± 0.29 and 2.21 ± 0.15.
Consider WKITIYDQENFQGKRMEFTSSCPN [CRYBA1], for which the protein stability index worked out at 2.26 ± 0.38 under setting [1] and 2.15 ± 0.23 under setting [2].
In the same order, the values of WTAPLVMRTTNLDNRCKLFDSPSL [CDC25A] are 2.4 ± 0.17 and 2.52 ± 0.28.
Consider YAYSNGIDYKTTTILLDGRRVRLE [RAB40C], for which the protein stability index reads like this: under setting [1], 2.68 ± 0.3; under setting [2], 2.56 ± 0.34.
In the same order, the values of YDCGEDFYRSTAPSEDIWKKFELV [MYCL] are 2.96 ± 0.19 and 3.33 ± 0.22.
YDFIVTKARGKSGPLFNFDVHDDV [FAM50A] returned a protein stability index under setting [1] of 2.65 ± 0.23 and a protein stability index under setting [2] of 2.78 ± 0.45.
On to YDRRVIRGNTYALQTGPLLGRPDS [RSPH3], for which the protein stability index reads like this: under setting [1], 3.29 ± 0.24; under setting [2], 3.56 ± 0.25.
For YGFYDECLRKYGNANVWKYFTDLF [PPP2CA], the protein stability index runs as follows: under setting [1], 2.5 ± 0.21; under setting [2], 2.67 ± 0.38.
In the same order, the values of YGNGMRKSPEMPVILEVSLEGSHD [RTP4] are 3.58 ± 0.26 and 3.97 ± 0.41.
In the same order, the values of YHSQDELGGFSHWGRLTSYSGGGY [PKD2L1] are 2.66 ± 0.6 and 2.52 ± 0.34.
In the same order, the values of YKCSWCGKSFSQNTNLHTHQRTHT [ZNF75A] are 4.65 ± 0.45 and 4.29 ± 0.54.
The sequence YKEKFGITDLPRIDVSKREPPPVK [EFHC1] displayed a protein stability index under setting [1] of 3.67 ± 0.38 and a protein stability index under setting [2] of 4.04 ± 0.23.
In turn, YKLVGSPPWKEAFRQRCLERMRNS [RPAIN] returned a protein stability index under setting [1] of 2.74 ± 0.32 and a protein stability index under setting [2] of 2.98 ± 0.52.
YKQLGSAGEGLPQVYYFGPCGKYN [CSNK1G1]: the protein stability index reads like this: under setting [1], 3.05 ± 0.65; under setting [2], 2.16 ± 0.2.
Take YKRQEESGAAASLNVDAAVQQWLQ [CHIT1]: the protein stability index reads like this: under setting [1], 4.22 ± 0.086; under setting [2], 4.1 ± 0.094.
Regarding YLAHASDVLENAFAPLLDEQYDLA [GOLPH3], the protein stability index reads like this: under setting [1], 2.83 ± 0.21; under setting [2], 3.12 ± 0.36.
In turn, YLAMLERFQDGDNILEKEVLPPIH [FEM1B] displayed a protein stability index under setting [1] of 2.73 ± 0.19 and a protein stability index under setting [2] of 2.93 ± 0.24.
Sequence YLELDRLVWRNSIRSSFISSLSFF [FBXO39] registered a protein stability index under setting [1] of 2.86 ± 0.37 and a protein stability index under setting [2] of 2.95 ± 0.45.
In turn, YLFWEFATDNYDIGFGVYFEWTDS [ACBD3] displayed a protein stability index under setting [1] of 3.14 ± 0.85 and a protein stability index under setting [2] of 1.93 ± 0.72.
YLLPDTCFRMQINHAIDIICGFLK [OAS1] yielded a protein stability index under setting [1] of 2.27 ± 0.3 and a protein stability index under setting [2] of 2.1 ± 0.33.
In the same order, the values of YLYFLFCPTLIYRETYPRTPYVRW [SOAT2] are 2.67 ± 0.76 and 2.58 ± 0.29.
Turning to YPQDLPRPLRSREFPQFEPQRYPA [TRAF3IP2], the protein stability index reads like this: under setting [1], 3.93 ± 0.3; under setting [2], 3.6 ± 0.41.
YQGGPPRPPMGMRPPVMSQGGRY [ZNF207] showed a protein stability index (treatment: DMSO, c terminus: native) of 2.56 ± 0.27 and a protein stability index (treatment: MLN4924 1 uM, 8 h, c terminus: native) of 2.84 ± 0.3.
For the sequence YRVWKKMLASVESVPFSFDPNTAA [TRIM35], the protein stability index was 2.06 ± 0.28 under setting [1] and 2.3 ± 0.14 under setting [2].
In the same order, the values of YSEEECKQYKAVVYSNTIQSIIAI [GNAI1] are 2.35 ± 0.63 and 2.06 ± 0.33.
Take YTSQITVEEGNVQTLLPAACLLQL [KLHL20]: the protein stability index was 2.28 ± 0.061 under setting [1] and 2.3 ± 0.25 under setting [2].
In the same order, the values of YVHHQALLDVKNIAHQNKFGEDMP [HDAC6] are 2.83 ± 0.54 and 3.49 ± 0.57.
Consider YWGSPEEQSLLSRWNPWSTEVPYA [TPRG1], for which the protein stability index under setting [1] worked out at 2.09 ± 0.14 and the protein stability index under setting [2] was 2.23 ± 0.28.
